Test results as given in US20110190142A1, “DETERMINATION OF RENIN-PRORENIN RECEPTOR ACTIVITY” (Charite- Universitatsmedizin Berlin, priority 2006, published 2011).

How the values were obtained:
HEK293 cells [1] = experiment: Caspase 3/7 activity as a measure of apoptosis; assay type: cell-based, human; details: for reduction of caspase 3/7 activity: HEK293 cells, 5 nM, 24 hours
Procedure: (§1) For all cell culture studies immortalized human epithelial kidney cells (HEK293 cells) were used. […] Additional inhibition with 1 μM aliskiren was performed as indicated. 1 hour after pre-treatment with losartan±aliskiren cells were stimulated with either 5 nM renin, 5 nM prorenin, or the respective vehicle. Cells were harvested for mRNA expression analysis or determination of viable cell number and apoptosis after 3 or 24 hours, respectively. These experimental procedures have been described in detail previously (Schefe et al., 2006). All experiments were performed in independent triplicates.

[2] = test system: renin/prorenin receptor (RER); experiment: RER mRNA by quantitative real-time PCR after renin/prorenin stimulation of HEK293 cells; assay type: cell-based, human
Procedure: (§2) HEK293 cells were seeded in 24-well plates and transfected with either 100 ng of pCEP4-PLZF-myc expression vector, 50 ng of indicated pGL3-basic construct and 10 ng of phRL-null plasmid (for luciferase assay), or 100 ng of pCEP4-PLZF-myc alone (for PCR experiments) per well as described above. siRNA transfection, renin stimulation and determination of reporter activity were performed as described above, except for an exceeded renin stimulation period of 3 hours.
(§3) RNA isolation and cDNA synthesis were performed as described above. qPCR was performed applying a SYBR Green I reaction mix and run on a Stratagene Mx3000P (Stratagene, La Jolla, Calif., USA) using the following primers: […]
(§4) Data represents the mean expression level±standard deviation (standardized to 18S rRNA expression) calculated according to the ddCT method of at least three independent measurements. Equality of PCR efficiencies has been verified applying the program LinRegPCR (Ramakers et al. 2003) and ANOVA testing.
as §1

[3] = target: endogenous human RER of HEK293 cells (human) (UniProt O75787); experiment: cell-based or functional assay
HEK293 cells [4] = experiment: Number of viable cells (ATP concentration); assay type: cell-based, human; details: for increase of viable cell number compared to vehicle: HEK293 cells, 5 nM, 24 hours
Procedure: as §1

[5] = test system: renin/prorenin receptor (RER); experiment: PI3K-p85α mRNA by quantitative real-time PCR after renin/prorenin stimulation of HEK293 cells; assay type: cell-based, human
Procedure: as §2, §3, §4, §1

[6] = target: T1, PLZF (promyelocytic zinc finger protein, ZBTB16), endogenous (Homo sapiens, UniProt Q05516 Q05516:1-673); experiment: ChIP-qPCR in HEK293; about 6-fold increased recruitment to the RER promoter region around the element after renin vs vehicle; details: tags: none (endogenous, HEK293)
T1 sequence: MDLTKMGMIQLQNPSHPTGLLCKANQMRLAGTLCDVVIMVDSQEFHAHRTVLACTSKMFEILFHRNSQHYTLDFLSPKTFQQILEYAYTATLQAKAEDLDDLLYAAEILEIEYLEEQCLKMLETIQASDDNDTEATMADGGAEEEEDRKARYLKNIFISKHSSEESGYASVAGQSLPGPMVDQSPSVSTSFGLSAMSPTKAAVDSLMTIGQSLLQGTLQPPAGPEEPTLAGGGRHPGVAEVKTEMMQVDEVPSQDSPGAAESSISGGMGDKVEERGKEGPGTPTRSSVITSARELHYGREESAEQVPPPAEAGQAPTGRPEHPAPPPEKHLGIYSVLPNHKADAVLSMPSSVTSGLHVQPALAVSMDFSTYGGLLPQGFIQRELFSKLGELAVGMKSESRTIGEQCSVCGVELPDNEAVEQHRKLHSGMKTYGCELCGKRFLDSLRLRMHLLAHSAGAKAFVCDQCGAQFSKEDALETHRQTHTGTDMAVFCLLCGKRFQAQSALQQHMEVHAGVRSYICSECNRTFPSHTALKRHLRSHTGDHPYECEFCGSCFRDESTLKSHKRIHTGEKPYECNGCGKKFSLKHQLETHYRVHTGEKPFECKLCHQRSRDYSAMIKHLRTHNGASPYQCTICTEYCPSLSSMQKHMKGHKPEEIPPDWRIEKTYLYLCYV

[7] = test system: renin/prorenin receptor (RER); experiment: PI3K-p85α promoter luciferase reporter assay under renin stimulation; assay type: cell-based, human; details: PLZF-overexpressing HEK293 cells, renin vs control
Procedure: (§5) The indicated cell types were seeded on day 1 in 12-well plates. 100 ng of indicated pGL3-basic constructs (encoding firefly luciferase) and 20 ng of phRL-null plasmid (encoding humanized Renilla luciferase for standardization of promoter activity; Promega) per well were transfected on day 2 at 60-80% confluency using GeneJuice (Merck Biosciences, Bad Soden, Germany) according to the manufacturer's protocol. Cells were harvested 48 hours after transfection using Passive Lysis Buffer (Promega). Reporter activities were measured in a Pharmingen Monolight 3010 luminometer (BD Biosciences, Erembodegem, Belgium) using the Dual-Luciferase Reporter Assay System (Promega). Promoter activity is expressed as relative luciferase activity (RLA) (Funke-Kaiser et al., 2003a). RLA data represent the mean±standard deviation of at least three single, parallel transfection experiments.
as §2

[8] = test system: renin/prorenin receptor (RER); experiment: PLZF translocation, fractionated extraction of cytosolic and nuclear proteins and Western blot; assay type: cell-based, human; details: HEK293 cells, c-myc-tagged PLZF, 10 nM renin
Procedure: Cytosolic and membrane proteins were isolated using the ProteoExtract Subcellular Proteome Extraction Kit (Calbiochem, Darmstadt, Germany). A fractionated extraction of cytosolic and nuclear proteins was performed as described previously (Funke-Kaiser et al., 2003a). Protein concentrations were determined using the DC Protein Assay (Bio-Rad, München, Germany). Cytosolic, membrane and nuclear fractions were controlled by Western blot using antibodies against Akt (mouse monoclonal, 5G3; 1:1,000; Cell Signalling, Danvers, Mass., USA), angiotensin AT1 receptor (rabbit polyclonal, sc-579; 1:2,000; Santa Cruz Biotechnology, Heidelberg, Germany) and TBP (rabbit polyclonal, sc-204; 1:1,000; Santa Cruz Biotechnology), respectively.
For PLZF translocation experiments HEK293 cells were seeded on day 1 in 6-well plates. 250 ng of pCEP4-PLZF-myc expression vector per well were transfected on day 2 at 40-60% confluency using GeneJuice (Merck Biosciences, Bad Soden, Germany) according to the manufacturer's protocol. […] Chemoluminescence was detected with ECL (Amersham, München, Germany), and subsequent exposition to Hyperfilm (Amersham).

[9] = test system: renin/prorenin receptor (RER); experiment: RER promoter luciferase reporter assay under renin stimulation; assay type: cell-based, human; details: PLZF-overexpressing HEK293 cells, renin vs all controls
Procedure: as §5, §2

[10] = HEK293 cells transfected with scrambled control siRNA
[11] = HEK293 cells, 5 nM, 3 hours, 1 μM losartan pre-treatment

Sequence of endogenous human RER of HEK293 cells (human) (O75787 17-350): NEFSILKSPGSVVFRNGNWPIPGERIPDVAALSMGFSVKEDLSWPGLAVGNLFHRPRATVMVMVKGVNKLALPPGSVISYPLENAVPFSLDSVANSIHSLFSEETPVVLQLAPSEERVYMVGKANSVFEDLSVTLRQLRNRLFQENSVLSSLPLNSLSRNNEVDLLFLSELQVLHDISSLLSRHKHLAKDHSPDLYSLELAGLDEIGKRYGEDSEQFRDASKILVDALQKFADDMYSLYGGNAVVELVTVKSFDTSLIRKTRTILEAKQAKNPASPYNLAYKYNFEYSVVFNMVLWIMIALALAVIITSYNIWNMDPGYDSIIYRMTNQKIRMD

B1: prorenin (ligand, UniProt P00797 24-406, looked up, species assumed)
pro-form: LPTDTTTFKRIFLKRMPSIRESLKERGVDMARLGPEWSQPMKRLTLGNTTSSVILTNYMDTQYYGEIGIGTPPQTFKVVFDTGSSNVWVPSSKCSRLYTACVYHKLFDASDSSSYKHNGTELTLRYSTGTVSGFLSQDIITVGGITVTQMFGEVTEMPALPFMLAEFDGVVGMGFIEQAIGRVTPIFDNIISQGVLKEDVFSFYYNRDSENSQSLGGQIVLGGSDPQHYEGNFHYINLIKTGVWQIQMKGVSVGSSTLLCEDGCLALVDTGASYISGSTSSIEKLMEALGAKKRLFDYVVKCNEGPTLPDISFHLGGKEYTLTSADYVFQESYSSKKLCTLAIHAMDIPPPTGPTWALGATFIRKFYTEFDRRNNRIGFALAR
modifications: pro-form
HEK293 cells [1]; [10]
  attenuation of caspase 3/7 activity: 53.4%
HEK293 cells [1]
  reduction of caspase 3/7 activity: 35.7%
[2]; [10]
  RER mRNA, % of vehicle control: 59.7%
[2]; [11]
  RER mRNA, % of vehicle control: 63.6%
[3]
  PI3K-p85α mRNA after 3 hours, 5 nM prorenin, HEK293 cells (% of vehicle control): 176
  PI3K-p85α mRNA, prorenin, HEK293 cells with scrambled control siRNA (% of vehicle control): 213
  RER mRNA after 3 hours, 5 nM prorenin, HEK293 cells (% of vehicle control): 63.6
  RER mRNA, prorenin, HEK293 cells with scrambled control siRNA (% of vehicle control): 59.7
  caspase 3/7 activity after 24 hours, 5 nM prorenin, HEK293 cells: 35.7 % decrease
  caspase 3/7 activity, prorenin, HEK293 cells with scrambled control siRNA: 53.4 % decrease
  viable cell number after 24 hours, 5 nM prorenin, HEK293 cells: 124 % increase
  viable cell number, prorenin, HEK293 cells with scrambled control siRNA: 87.5 % increase
HEK293 cells [4]; [10]
  increase of viable cell number: 87.5%
HEK293 cells [4]
  increase of viable cell number compared to vehicle: 123.8%
[5]; [10]
  PI3K-p85α mRNA, % of vehicle control: 212.8%
[5]; [11]
  PI3K-p85α mRNA, % of vehicle control: 175.8%

B2: RER promoter PLZF element, native (dsDNA)
DNA 1: CTTAACTACAGTTTTCACTGG
DNA 2: CCAGTGAAAACTGTAGTTAAG
[6]
  binding signal: 6 fold

B3: human recombinant renin (mammalian expression) (ligand, UniProt P00797 67-406, looked up)
chain: LTLGNTTSSVILTNYMDTQYYGEIGIGTPPQTFKVVFDTGSSNVWVPSSKCSRLYTACVYHKLFDASDSSSYKHNGTELTLRYSTGTVSGFLSQDIITVGGITVTQMFGEVTEMPALPFMLAEFDGVVGMGFIEQAIGRVTPIFDNIISQGVLKEDVFSFYYNRDSENSQSLGGQIVLGGSDPQHYEGNFHYINLIKTGVWQIQMKGVSVGSSTLLCEDGCLALVDTGASYISGSTSSIEKLMEALGAKKRLFDYVVKCNEGPTLPDISFHLGGKEYTLTSADYVFQESYSSKKLCTLAIHAMDIPPPTGPTWALGATFIRKFYTEFDRRNNRIGFALAR
HEK293 cells [1]
  reduction of caspase 3/7 activity: 31%
[2]; HEK293 cells with PLZF overexpression (pCEP4-PLZF) plus renin stimulation
  RER mRNA (first column set to 100%): 45.4±4.7%
[2]; HEK293 cells without PLZF overexpression, renin stimulation vs vehicle
  RER mRNA (first column set to 100%): 80.6±3.3%
[2]; [11]
  RER mRNA, % of vehicle control: 59.2%
[7]
  increase in PI3K-p85α promoter activity: 45%
[3]
  PI3K-p85α mRNA (real-time PCR), HEK293 cells with PLZF overexpression: 105 % increase
  PI3K-p85α mRNA (real-time PCR), HEK293 cells without PLZF overexpression: 30.2 % increase
  PI3K-p85α mRNA after 3 hours, 5 nM renin, HEK293 cells (% of vehicle control): 172
  PI3K-p85α promoter activity (luciferase reporter) in PLZF-overexpressing HEK293 cells: 45 % increase
  PLZF recruitment to the RER promoter (ChIP with real-time PCR) in HEK293 cells: 6 fold
  RER mRNA (real-time PCR) in HEK293 cells after renin stimulation combined with PLZF transfection: 45.4 % of control
  RER mRNA (real-time PCR) in HEK293 cells after renin stimulation, without PLZF overexpression: 80.6 % of control
  RER mRNA after 3 hours, 5 nM renin, HEK293 cells (% of vehicle control): 59.2
  RER promoter activity (luciferase reporter) in PLZF-overexpressing HEK293 cells: 30 % decrease
  caspase 3/7 activity after 24 hours, 5 nM renin, HEK293 cells: 31 % decrease
[8]
  translocation of PLZF from the cytoplasm to the nucleus: clear increase in nuclear PLZF
HEK293 cells [4]
  increase of viable cell number compared to vehicle: 103.6%
[9]
  decrease in the activity of a wild type RER promoter: about 30%
[5]; HEK293 cells with PLZF overexpression
  increase of PI3K-p85α mRNA relative to vehicle control: 105.2±6.74%
[5]; HEK293 cells without PLZF overexpression
  increase of PI3K-p85α mRNA relative to vehicle control: 30.2±7.9%
[5]; [11]
  PI3K-p85α mRNA, % of vehicle control: 171.8%
